Target: the molecule itself
Experiment: cryo-EM structure

B1: Streptomyces coelicolor bacterioferritin (natural protein, UniProt Q9S2N0 1-167, looked up)
chain: MQGDPEVIEFLNEQLTAELTAINQYFLHAKLQDHKGWTKLAKYTRAESFDEMRHAEVLTDRILLLDGLPNYQRLFHVRVGQSVTEMFQADREVELEAIDRLRRGIEVMRAKHDITSANVFEAILADEEHHIDYLETQLDLIEKLGESLYLSTVIEQTQPDPSGPGSL
- stoichiometry N: 24

— paper doi:10.1101/2021.02.04.429857 (bioRxiv, 2021)
